Measurements: patent US20230218710A1 (COHBAR, published 2023)
Square brackets hold non-standard residues; d marks the D form. Primed or numbered codes have the meaning given here. Ends that are not written are not given here. PEG12″ = polyethylene glycol with 12 units (PEG-12)

B1: SEQ ID NO: 60 (peptide)
peptide: RRMMGMVFQSL
B2: SEQ ID NO: 45 (peptide)
peptide: MMGMVF
B3: SEQ ID NO: 61 (peptide)
peptide: Ac-RRMMGMVFQSLCG[dA]
B4: SEQ ID NO: 32 (peptide)
peptide: RRMEVYQCLEG[dA]
B5: SEQ ID NO: 54 (peptide)
peptide: RMMGMVFQSLCG[dA]
B6: SEQ ID NO: 28 (peptide)
peptide: RRMGYQCLEG[dA]
B7: SEQ ID NO: 38 (peptide)
peptide: RRMMGMVEQSLCG[dA]
B8: SEQ ID NO: 30 (peptide)
peptide: RRMMGMVAQCLEG[dA]
B9: SEQ ID NO: 55 (peptide)
peptide: RRMMGM
B10: SEQ ID NO: 26 (peptide)
peptide: RREMVYQCLEG[dA]
B11: SEQ ID NO: 20 (peptide)
peptide: KRRMMGMVFQCLCGA
modifications: (PEG12) at the N-terminal K; C-terminal (dA) = D-alanine
B12: SEQ ID NO: 41 (peptide)
peptide: RRLLGLVFQSLEG[dA]
B13: SEQ ID NO: 23 (peptide)
peptide: RRMVFQCLEG[dA]
B14: SEQ ID NO: 18 (peptide)
peptide: RRXXGXVFQCLCGA
modifications: (Nle) = norleucine at positions 3, 4 and 6; C-terminal (dA) = D-alanine
B15: SEQ ID NO: 56 (peptide)
peptide: RRMMGMV
B16: SEQ ID NO: 19 (peptide)
peptide: RRMVFQCLCG[dA]
modifications: cysteine pairing not given here
B17: SEQ ID NO: 52 (peptide)
peptide: RMMGMVFQS
B18: SEQ ID NO: 35 (peptide)
peptide: RXLLGLVFQSLCGA
modifications: (Aib) = aminoisobutyric acid at position 2; C-terminal (dA) = D-alanine
B19: SEQ ID NO: 25 (peptide)
peptide: RREMVYQCLCG[dA]
modifications: cysteine pairing not given here
B20: SEQ ID NO: 59 (peptide)
peptide: RRMMGMVFQS
B21: SEQ ID NO: 22 (peptide)
peptide: RRMVYQCLCG[dA]
modifications: cysteine pairing not given here
B22: SEQ ID NO: 31 (peptide)
peptide: RRMEVYQCLCG[dA]
modifications: cysteine pairing not given here; also: places D-Ala at position 13
B23: SEQ ID NO: 24 (peptide)
peptide: RRMVYQCLEG[dA]
B24: SEQ ID NO: 21 (peptide)
peptide: RRMMGMVFQCLCG[dA]K(PEG12″)
modifications: cysteine pairing not given here
B25: SEQ ID NO: 57 (peptide)
peptide: RRMMGMVF
B26: SEQ ID NO: 58 (peptide)
peptide: RRMMGMVFQ
B27: SEQ ID NO: 10 (peptide)
peptide: RRMMGMVYQCLCG[dA]
modifications: cysteine pairing not given here
B28: SEQ ID NO: 39 (peptide)
peptide: RRMMGMVFQSLEG[dA]
B29: SEQ ID NO: 34 (peptide)
peptide: RXMMGMVFQSLCGA
modifications: (Aib) = aminoisobutyric acid at position 2; C-terminal (dA) = D-alanine
B30: SEQ ID NO: 33 (peptide)
peptide: RRLLGLVFQSLCG[dA]
B31: SEQ ID NO: 40 (peptide)
peptide: RRLLGLVEQSLCG[dA]
B32: SEQ ID NO: 29 (peptide)
peptide: RRMMGMVYQCLEG[dA]
B33: SEQ ID NO: 17 (peptide)
peptide: RRMMGMVFQSLSG[dA]
B34: SEQ ID NO: 8 (peptide)
peptide: RRMMGMVFQCLCG[dA]
modifications: cysteine pairing not given here
B35: SEQ ID NO: 63 (peptide)
peptide: Ac-RRMMGMVFQSLCG[dA]-NH2
B36: SEQ ID NO: 27 (peptide)
peptide: RRMAYQCLEG[dA]
B37: SEQ ID NO: 62 (peptide)
peptide: RRMMGMVFQSLCG[dA]-NH2
B38: SEQ ID NO: 53 (peptide)
peptide: RMMGMVFQSL
B39: SEQ ID NO: 44 (peptide)
peptide: MMGMV
B40: SEQ ID NO: 16 (peptide)
peptide: RRMMGMVFQCLSG[dA]

These binders were tested against T1, Apelin Receptor (APJ) stably overexpressed in CHO-K1 AGTRL1 Gi cells (UniProt P35414 1-380, limits assumed) (assay: cell-based or functional assay).
T1 sequence (looked up): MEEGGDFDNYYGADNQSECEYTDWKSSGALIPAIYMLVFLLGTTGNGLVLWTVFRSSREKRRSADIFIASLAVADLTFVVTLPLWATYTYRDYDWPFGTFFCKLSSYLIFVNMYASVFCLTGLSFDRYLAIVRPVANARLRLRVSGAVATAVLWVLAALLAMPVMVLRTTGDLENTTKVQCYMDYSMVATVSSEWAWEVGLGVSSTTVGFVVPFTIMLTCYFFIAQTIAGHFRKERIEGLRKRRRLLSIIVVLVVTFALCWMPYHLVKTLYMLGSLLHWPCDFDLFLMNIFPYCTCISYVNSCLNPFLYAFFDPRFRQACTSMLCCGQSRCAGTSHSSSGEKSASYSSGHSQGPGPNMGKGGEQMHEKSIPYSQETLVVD
With B1 the “inhibition of forskolin-induced cAMP, Percent of Pyr-Apelin-13 Control Activity (10 µM peptide)” value was 16%. B2 was tested, and the “inhibition of forskolin-induced cAMP, Percent of Pyr-Apelin-13 Control Activity (10 µM peptide)” value was 10%. For B3, the “inhibition of forskolin-induced cAMP, Percent of Pyr-Apelin-13 Control Activity (10 µM peptide)” value was 1%. For B4, the “inhibition of forskolin-induced cAMP, Percent of Pyr-Apelin-13 Control Activity (10 µM peptide)” value was 4%. B5 was tested, and the “inhibition of forskolin-induced cAMP, Percent of Pyr-Apelin-13 Control Activity (10 µM peptide)” value was 20%. For B6, the “inhibition of forskolin-induced cAMP, Percent of Pyr-Apelin-13 Control Activity (10 µM peptide)” value was 3%. With B7 the “inhibition of forskolin-induced cAMP, Percent of Pyr-Apelin-13 Control Activity (10 µM peptide)” value was 12%. For B8, the “inhibition of forskolin-induced cAMP, Percent of Pyr-Apelin-13 Control Activity (10 µM peptide)” value was 31%. For B9, the “inhibition of forskolin-induced cAMP, Percent of Pyr-Apelin-13 Control Activity (10 µM peptide)” value was -7%. For B10, the “inhibition of forskolin-induced cAMP, Percent of Pyr-Apelin-13 Control Activity (10 µM peptide)” value was 29%. With B11 the “inhibition of forskolin-induced cAMP, Percent of Pyr-Apelin-13 Control Activity (10 µM peptide)” value was 37%. With B12 the “inhibition of forskolin-induced cAMP, Percent of Pyr-Apelin-13 Control Activity (10 µM peptide)” value was 15%. For B13, the “inhibition of forskolin-induced cAMP, Percent of Pyr-Apelin-13 Control Activity (10 µM peptide)” value was -4%. B14 was tested, and the “inhibition of forskolin-induced cAMP, Percent of Pyr-Apelin-13 Control Activity (10 µM peptide)” value was 30%. With B15 the “inhibition of forskolin-induced cAMP, Percent of Pyr-Apelin-13 Control Activity (10 µM peptide)” value was -2%. In the case of B16, the “inhibition of forskolin-induced cAMP, Percent of Pyr-Apelin-13 Control Activity (10 µM peptide)” value is reported as 27%. In the case of B17, the “inhibition of forskolin-induced cAMP, Percent of Pyr-Apelin-13 Control Activity (10 µM peptide)” value is reported as 15%. In the case of B18, the “inhibition of forskolin-induced cAMP, Percent of Pyr-Apelin-13 Control Activity (10 µM peptide)” value is reported as 8%. In the case of B19, the “inhibition of forskolin-induced cAMP, Percent of Pyr-Apelin-13 Control Activity (10 µM peptide)” value is reported as 3%. For B20, the “inhibition of forskolin-induced cAMP, Percent of Pyr-Apelin-13 Control Activity (10 µM peptide)” value was -2%. For B21, the “inhibition of forskolin-induced cAMP, Percent of Pyr-Apelin-13 Control Activity (10 µM peptide)” value was 62%. B22 was tested, and the “inhibition of forskolin-induced cAMP, Percent of Pyr-Apelin-13 Control Activity (10 µM peptide)” value was 2%. With B23 the “inhibition of forskolin-induced cAMP, Percent of Pyr-Apelin-13 Control Activity (10 µM peptide)” value was 16%. With B24 the “inhibition of forskolin-induced cAMP, Percent of Pyr-Apelin-13 Control Activity (10 µM peptide)” value was 34%. With B25 the “inhibition of forskolin-induced cAMP, Percent of Pyr-Apelin-13 Control Activity (10 µM peptide)” value was -1%. In the case of B26, the “inhibition of forskolin-induced cAMP, Percent of Pyr-Apelin-13 Control Activity (10 µM peptide)” value is reported as 5%. With B27 the “inhibition of forskolin-induced cAMP, Percent of Pyr-Apelin-13 Control Activity (10 µM peptide)” value was 70%. With B28 the “inhibition of forskolin-induced cAMP, Percent of Pyr-Apelin-13 Control Activity (10 µM peptide)” value was -13%. For B29, the “inhibition of forskolin-induced cAMP, Percent of Pyr-Apelin-13 Control Activity (10 µM peptide)” value was 61%. For B30, the “inhibition of forskolin-induced cAMP, Percent of Pyr-Apelin-13 Control Activity (10 µM peptide)” value was 27%. With B31 the “inhibition of forskolin-induced cAMP, Percent of Pyr-Apelin-13 Control Activity (10 µM peptide)” value was 19%. B32 was tested, and the “inhibition of forskolin-induced cAMP, Percent of Pyr-Apelin-13 Control Activity (10 µM peptide)” value was 21%. For B33, the “inhibition of forskolin-induced cAMP, Percent of Pyr-Apelin-13 Control Activity (10 µM peptide)” value was 26%. In the case of B34, the “inhibition of forskolin-induced cAMP, Percent of Pyr-Apelin-13 Control Activity (10 µM peptide)” value is reported as 64%. B35 was tested, and the “inhibition of forskolin-induced cAMP, Percent of Pyr-Apelin-13 Control Activity (10 µM peptide)” value was 21%. B36 was tested, and the “inhibition of forskolin-induced cAMP, Percent of Pyr-Apelin-13 Control Activity (10 µM peptide)” value was 9%. With B37 the “inhibition of forskolin-induced cAMP, Percent of Pyr-Apelin-13 Control Activity (10 µM peptide)” value was 27%. For B38, the “inhibition of forskolin-induced cAMP, Percent of Pyr-Apelin-13 Control Activity (10 µM peptide)” value was 6%. B39 was tested, and the “inhibition of forskolin-induced cAMP, Percent of Pyr-Apelin-13 Control Activity (10 µM peptide)” value was 5%.

The binders below were run against ProLink tagged human APJ (Apelin Receptor) in CHO-K1 AGTRL1 β-Arrestin cells (human, UniProt P35414 1-380) (assay: cell-based or functional assay).
In the case of B1, the “β-Arrestin recruitment, Percent of Apelin-13 Control Activity (10 µM peptide)” value (shortened to “β-Arrestin recruitment, Percent”) is reported as 0%. In the case of B2, the “β-Arrestin recruitment, Percent” value is reported as 0%. In the case of B3, the “β-Arrestin recruitment, Percent” value is reported as 5%. For B4, the “β-Arrestin recruitment, Percent” value was 0%. With B5 the “β-Arrestin recruitment, Percent” value was 1%. For B6, the “β-Arrestin recruitment, Percent” value was -1%. B7 was tested, and the “β-Arrestin recruitment, Percent” value was 0%. With B8 the “β-Arrestin recruitment, Percent” value was -1%. In the case of B9, the “β-Arrestin recruitment, Percent” value is reported as 1%. For B10, the “β-Arrestin recruitment, Percent” value was 0%. B11 was tested, and the “β-Arrestin recruitment, Percent” value was 1%. With B12 the “β-Arrestin recruitment, Percent” value was 0%. In the case of B13, the “β-Arrestin recruitment, Percent” value is reported as 0%. B14 was tested, and the “β-Arrestin recruitment, Percent” value was 1%. For B15, the “β-Arrestin recruitment, Percent” value was 0%. In the case of B16, the “β-Arrestin recruitment, Percent” value is reported as 1%. For B17, the “β-Arrestin recruitment, Percent” value was 0%. For B18, the “β-Arrestin recruitment, Percent” value was 17%. B19 was tested, and the “β-Arrestin recruitment, Percent” value was -1%. B20 was tested, and the “β-Arrestin recruitment, Percent” value was 0%. In the case of B21, the “β-Arrestin recruitment, Percent” value is reported as 0%. B22 was tested, and the “β-Arrestin recruitment, Percent” value was 0%. B23 was tested, and the “β-Arrestin recruitment, Percent” value was -1%. In the case of B24, the “β-Arrestin recruitment, Percent” value is reported as 1%. With B40 the “β-Arrestin recruitment, Percent” value was 0%. For B25, the “β-Arrestin recruitment, Percent” value was 0%. In the case of B26, the “β-Arrestin recruitment, Percent” value is reported as 0%. With B27 the “β-Arrestin recruitment, Percent” value was 3%. In the case of B28, the “β-Arrestin recruitment, Percent” value is reported as 0%. B29 was tested, and the “β-Arrestin recruitment, Percent” value was 8%. In the case of B30, the “β-Arrestin recruitment, Percent” value is reported as 9%. With B31 the “β-Arrestin recruitment, Percent” value was 0%. For B32, the “β-Arrestin recruitment, Percent” value was 0%. With B33 the “β-Arrestin recruitment, Percent” value was 10%. With B34 the “β-Arrestin recruitment, Percent” value was 17%. With B35 the “β-Arrestin recruitment, Percent” value was 9%. B36 was tested, and the “β-Arrestin recruitment, Percent” value was -1%. For B37, the “β-Arrestin recruitment, Percent” value was 2%. In the case of B38, the “β-Arrestin recruitment, Percent” value is reported as 1%. In the case of B39, the “β-Arrestin recruitment, Percent” value is reported as 0%.
